Laboratory results: patent publication US20160185856A1 (INSERM INSTITUT NATIONAL DE LA SANTE ET DE LA RECHERCHE …, published 2016)

Key:
CLDN8 = target: T1, CLDN8 (human, UniProt P56748 1-225); experiment: FACS on SW480 cells transiently transfected with human CLDN8
T1 construct: whole, on cells; also called human CLDN8
T1 sequence (looked up): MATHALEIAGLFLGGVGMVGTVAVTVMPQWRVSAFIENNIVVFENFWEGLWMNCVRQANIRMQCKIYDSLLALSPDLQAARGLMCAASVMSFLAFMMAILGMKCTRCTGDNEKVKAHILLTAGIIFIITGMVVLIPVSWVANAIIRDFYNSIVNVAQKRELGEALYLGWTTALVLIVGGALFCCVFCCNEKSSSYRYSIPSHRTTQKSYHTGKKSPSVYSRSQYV
Experimental: (§1) A). Cell lysates derived from SW480 or CLDN-transfected SW480 were tested by Western-Blotting. B) FACS histograms of the binding 6F6C3 mAb (10 μg/mL-gray histogram) or control without 6F6C3 (dashed histogram) or irrelevant antibody 35A7 (black histogram) to the different CLDNs.
(§2) After transitory tranfection on SW480 cells of human cDNA clone of CLDN8 (sc320974, Origene technologies, USA) and murine cDNA clone of CLDN1 (IRAVp968A105D, LifeScience), we analysed by FACs cross-reactivity of 6F6C3 mAb.

CLDN7 = target: T2, CLDN7 (UniProt O95471 1-211, limits assumed); experiment: FACS on parental SW480 cells, which express CLDN7
T2 construct: whole, on cells; It is endogenous in the human SW480 cell line
T2 sequence (looked up): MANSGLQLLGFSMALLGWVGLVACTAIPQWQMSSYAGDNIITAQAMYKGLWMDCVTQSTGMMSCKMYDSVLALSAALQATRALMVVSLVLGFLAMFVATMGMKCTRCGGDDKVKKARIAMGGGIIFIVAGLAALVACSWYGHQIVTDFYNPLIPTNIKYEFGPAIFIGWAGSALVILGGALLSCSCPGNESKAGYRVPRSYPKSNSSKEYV
Experimental: as §1, §2

murine CLDN1 = target: T3, murine CLDN1 (murine, UniProt O88551 1-211); experiment: FACS on SW480 cells transiently transfected with murine CLDN1
T3 construct: whole, on cells; also called mCLDN1
T3 sequence (looked up): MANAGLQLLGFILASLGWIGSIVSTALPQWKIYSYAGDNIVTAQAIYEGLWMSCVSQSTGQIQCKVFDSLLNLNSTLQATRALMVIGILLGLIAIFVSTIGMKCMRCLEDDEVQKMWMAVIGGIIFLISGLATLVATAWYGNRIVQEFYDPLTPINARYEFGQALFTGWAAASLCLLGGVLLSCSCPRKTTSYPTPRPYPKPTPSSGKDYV
Experimental: as §1, §2

Measured: binding result

B1: 6F6C3 mAb (antibody, V domains shown)
VH: QIQLVQSGPELKKPGETVRISCKASGYTFTTSGMQWLQKMPGKGLKWIGWINTHFGEPKYAEDFKGRFAFSLETSASTAYLQISNLKNEDTATYFCAGAGYYGSRYFDVWGAGTTVTVSS
VL: DIVMTQSQKFMSTSVGDRVSITCKASQNVGTAVAWYQQKPGQSPKLLIYSASNRYTGVPDRFTGSGSGTDFTLTISNMQSEDLADYFCQQYSSYPLTFGGGTKLEIK
notes: Murine hybridoma antibody; Used as purified mAb or as hybridoma supernatant; also called mAb6F6C3; murine anti-CLDN1 antibody (6F6C3)
no binding (tested: 10 µg/mL): all assays above
